According to US20230295310A1 (ABCELLERA BIOLOGICS, published 2023):
Changes are numbered by the printed parent chain. One block for each binder: values may come before it.

What was measured:
[1] = molecular target: T1, cynomolgus monkey CD3 expressed on cyno primary T cells (cynomolgus monkey, UniProt Q95LI5 22-198; Q95LI8 22-171; Q95LI7 23-181); assay: flow cytometry, cyno primary T cells
T1 construct: whole, on cells; CD3 complex on purified cynomolgus monkey CD3 pan T cells; also called cyno CD3
T1 sequence (Q95LI5 22-198, chain 1 of 3): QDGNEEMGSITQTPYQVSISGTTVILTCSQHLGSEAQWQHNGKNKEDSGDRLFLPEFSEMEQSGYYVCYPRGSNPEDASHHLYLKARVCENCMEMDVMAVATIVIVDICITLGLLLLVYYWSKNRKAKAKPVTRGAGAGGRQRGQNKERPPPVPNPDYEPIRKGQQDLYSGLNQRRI
T1 sequence (Q95LI8 22-171, chain 2 of 3): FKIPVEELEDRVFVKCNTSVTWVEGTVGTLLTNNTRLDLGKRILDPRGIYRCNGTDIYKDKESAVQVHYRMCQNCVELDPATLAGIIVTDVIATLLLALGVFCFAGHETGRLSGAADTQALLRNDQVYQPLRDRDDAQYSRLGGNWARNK
T1 sequence (Q95LI7 23-181, chain 3 of 3): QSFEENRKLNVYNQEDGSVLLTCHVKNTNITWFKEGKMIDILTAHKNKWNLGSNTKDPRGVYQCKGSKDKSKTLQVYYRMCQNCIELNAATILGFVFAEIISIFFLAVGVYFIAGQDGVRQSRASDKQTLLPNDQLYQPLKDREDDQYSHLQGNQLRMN
How it was run: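 Flow cytometric binding was measured after cells were incubated with antibody (25 nM, PBS+2% FBS) at 4° C for 30 minutes. Signals were normalized to isotype to yield FOI, with ≥10 scored positive.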

[2] = molecular target: T2, human CD3 expressed on cells (Jurkat cells; human primary T cells) (human, UniProt P07766 23-207; P04234 22-171; P09693 23-182); assay: flow cytometry, 25 nM, Jurkat cells
T2 construct: whole, on cells
T2 sequence (P07766 23-207, chain 1 of 3): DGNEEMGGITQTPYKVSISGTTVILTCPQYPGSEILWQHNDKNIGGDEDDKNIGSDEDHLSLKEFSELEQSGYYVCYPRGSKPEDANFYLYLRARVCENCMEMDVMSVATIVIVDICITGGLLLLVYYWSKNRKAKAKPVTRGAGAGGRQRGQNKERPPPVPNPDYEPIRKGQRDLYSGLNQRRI
T2 sequence (P04234 22-171, chain 2 of 3): as the sequence (Q95LI8 22-171, chain 2 of 3) above, with V5I, K15N, V20I, T32S, N33D, N34I, A64T, N74S, L83V, R141H counted along it
T2 sequence (P09693 23-182, chain 3 of 3): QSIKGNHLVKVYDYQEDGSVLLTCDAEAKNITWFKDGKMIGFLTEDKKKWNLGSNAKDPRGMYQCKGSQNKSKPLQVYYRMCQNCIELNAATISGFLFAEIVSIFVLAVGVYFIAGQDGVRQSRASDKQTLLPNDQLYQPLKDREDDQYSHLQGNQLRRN
Protocol: (§1) Purified antibodies were confirmed to bind CD3 expressed on cells using the CytoFLEX S or LX flow cytometers (Beckman Coulter). Antibodies were diluted to 25 nM in FACS buffer (PBS+2% FBS) and were incubated with CD3-expressing cells for 30 minutes at 4° C. […] The median fluorescence intensity of the binding signal for each antibody was normalized to the isotype control to obtain a fold over isotype value. An antibody with a fold over isotype (FOI) of ≥10 was considered to be positive for binding.

[3] = molecular target: T2, human CD3 expressed on cells (Jurkat …); assay: flow cytometry, 25 nM, human primary T cells
Protocol: as §1

B1: mAb 212 (antibody, V domains shown)
VH: EVQLLESGGGLVQPGGSLRLSCAASGFTFSNYAMNWVRQAPGKGLEWVSAISGSRSNTYYADSVKGRFTISRDNSKNTLYLQMNSLRAEDTGVYYCAKGAYSKYPYYYYMDVWGKGTTVTVSS
VL: EIVMTQSPATLSLSPGERATLSCRASQSVSSSYLSWYQQKPGQAPRLLIYGASTRAIGIPARFSGSGSGTDFTLTISSLQAEDFAVYYCQQDDNLPWTFGQGTKVEIK
notes: VH/VL only
binding result [1]: no binding (tested: FOI <10 (FOI >=10 = positive); 25 nM) | Binding (FOI) [2]: 150 FOI | Binding (FOI) [3]: 160 FOI

B2: mAb 214 (antibody, V domains shown)
VH: B1 VH with G92A
VL: B1 VL
notes: VH/VL only
binding result [1]: no binding (tested: FOI <10 (FOI >=10 = positive); 25 nM) | Binding (FOI) [2]: 150 FOI | Binding (FOI) [3]: 162 FOI

B5: mAb 206 (antibody, V domains shown)
VH: QVQLVESGGGVVQPGRSLRLSCAASGFTFSGYGMHWVRQAPGKGLEWVAIIYYNGNNRKYADSVKGRFTISRDNSKNTVSLQMNSLRVEDTAIYYCTRGDGYNWFVTWGQGTLVTVSS
VL: EIVMTQSPATLSVSPGERATLSCRASQSVSSNLAWYHQKPGQAPRLLIYGASTRATGIPVRFSGSGSGTEFTLTISSLQSEDFAVYYCQQYNNWPLTFGGGTKVEIK
notes: VH/VL only
binding result [1]: no binding (tested: FOI <10 (FOI >=10 = positive); 25 nM) | Binding (FOI) [2]: 186 FOI | Binding (FOI) [3]: 198 FOI

B6: mAb 195 (antibody, V domains shown)
VH: QEQLVESGGGVVQSGRSLRLSCVASGFKFSGYGMHWVRQAPGKGLEWVAIIYYDGKNKYYADSVKGRFTISRDNSKNTLYLQMNSLRAEDTAVYYCTRGAGYNWFDSWGQGTLVTVSS
VL: B5 VL with S30R, S31N, H37Q, A51V, G57A, I58F, V60A
notes: VH/VL only
binding result [1]: no binding (tested: FOI <10 (FOI >=10 = positive); 25 nM) | Binding (FOI) [2]: 170 FOI | Binding (FOI) [3]: 226 FOI

B7: mAb 221 (antibody, V domains shown)
VH: QVQLVESGGGVVQPGGSLRLSCAASGFTFSGYGMHWVRQAPGKGLEWVAIIWYNGRKTYYAESVKGRFTISRDNSKNTLSLQMNSLRVEDTAVYYCTAGQGYNWFDPWGQGTLVTVSS
VL: B5 VL with H37Q, V60A, Y91F, N93A, V104M
notes: VH/VL only
binding result [1]: no binding (tested: FOI <10 (FOI >=10 = positive); 25 nM) | Binding (FOI) [2]: 181 FOI | Binding (FOI) [3]: 239 FOI

B10: mAb 209 (antibody, V domains shown)
VH: QVQLVESGGGVVQPGRSLRLSCAASGFTFSGYGMHWVRQAPGKGLEWVAIIYYNGKKEYYADSVKGRFTVSRDNSKNMLYLQMNSLRAEDTAVYYCTRGEGYNWFDPWGQGTLVTVSS
VL: B5 VL with S28T, H37Q, V60A, Q89K, W94R
notes: VH/VL only
binding result [1]: no binding (tested: FOI <10 (FOI >=10 = positive); 25 nM) | Binding (FOI) [2]: 186 FOI | Binding (FOI) [3]: 228 FOI

B14: mAb 196 (antibody, V domains shown)
VH: B6 VH with I70V
VL: B5 VL with S30R, S31N, H37Q, A51V, G57A, I58F, V60A
notes: VH/VL only
binding result [1]: no binding (tested: FOI <10 (FOI >=10 = positive); 25 nM) | Binding (FOI) [2]: 172 FOI | Binding (FOI) [3]: 224 FOI

B15: mAb 217 (antibody, V domains shown)
VH: B10 VH with V70I, S71F, M78T, L79V, N84K
VL: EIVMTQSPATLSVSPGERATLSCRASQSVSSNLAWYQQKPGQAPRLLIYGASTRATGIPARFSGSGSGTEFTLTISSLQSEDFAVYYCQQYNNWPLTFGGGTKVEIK
notes: VH/VL only
binding result [1]: no binding (tested: FOI <10 (FOI >=10 = positive); 25 nM) | Binding (FOI) [2]: 173 FOI | Binding (FOI) [3]: 214 FOI

B16: mAb 216 (antibody, V domains shown)
VH: B10 VH with V70I, M78T
VL: B5 VL with H37Q, V60A, Q89K, N92K
notes: VH/VL only
binding result [1]: no binding (tested: FOI <10 (FOI >=10 = positive); 25 nM) | Binding (FOI) [2]: 182 FOI | Binding (FOI) [3]: 218 FOI

B19: mAb 210 (antibody, V domains shown)
VH: B5 VH with V48L, I93M
VL: B5 VL with T20A, S30T, I106N
notes: VH/VL only
binding result [1]: no binding (tested: FOI <10 (FOI >=10 = positive); 25 nM) | Binding (FOI) [2]: 168 FOI | Binding (FOI) [3]: 192 FOI

Now from value to binder, other results behind:

Binding (FOI) [2]: 162 FOI | Binding (FOI) [3]: 181 FOI
B3: mAb 204 (antibody, V domains shown)
VH: B6 VH with E2V, V23A, K28T, I51V, T97V, A100E, S107P
VL: B5 VL with H37Q, A43V, V60A, E70Q
notes: VH/VL only
binding result [1]: no binding (tested: FOI <10 (FOI >=10 = positive); 25 nM)

Binding (FOI) [2]: 199 FOI | Binding (FOI) [3]: 217 FOI
B4: mAb 194 (antibody, V domains shown)
VH: B7 VH with V2E, T28I
VL: B5 VL with H37Q, V60A, Y91F, N93A, V104M
notes: VH/VL only
binding result [1]: no binding (tested: FOI <10 (FOI >=10 = positive); 25 nM)

Binding (FOI) [2]: 176 FOI | Binding (FOI) [3]: 199 FOI
B8: mAb 226 (antibody, V domains shown)
VH: B5 VH
VL: B5 VL with V29I, V85L
notes: VH/VL only
binding result [1]: no binding (tested: FOI <10 (FOI >=10 = positive); 25 nM)

Binding (FOI) [2]: 167 FOI | Binding (FOI) [3]: 202 FOI
B9: mAb 215 (antibody, V domains shown)
VH: B5 VH with S25T
VL: B5 VL with H37R
notes: VH/VL only; the VL is printed as a fragment of 18 residues only
binding result [1]: no binding (tested: FOI <10 (FOI >=10 = positive); 25 nM)

Binding (FOI) [2]: 163 FOI | Binding (FOI) [3]: 206 FOI
B11: mAb 193 (antibody, V domains shown)
VH: B5 VH
VL: B5 VL with E81D
notes: VH/VL only
binding result [1]: no binding (tested: FOI <10 (FOI >=10 = positive); 25 nM)

Binding (FOI) [2]: 180 FOI | Binding (FOI) [3]: 216 FOI
B12: mAb 205 (antibody, V domains shown)
VH: B10 VH with R16K, V70I, M78T
VL: B5 VL with H37Q, V60A, Q89K
notes: VH/VL only
binding result [1]: no binding (tested: FOI <10 (FOI >=10 = positive); 25 nM)

Binding (FOI) [2]: 181 FOI | Binding (FOI) [3]: 212 FOI
B13: mAb 224 (antibody, V domains shown)
VH: B10 VH with V70I, S85G, V93I
VL: B5 VL with A19T, S31N, H37Q, V60A
notes: VH/VL only
binding result [1]: no binding (tested: FOI <10 (FOI >=10 = positive); 25 nM)

Binding (FOI) [2]: 179 FOI | Binding (FOI) [3]: 192 FOI
B17: mAb 218 (antibody, V domains shown)
VH: B5 VH with K65R
VL: B5 VL with H37Y
notes: VH/VL only
binding result [1]: no binding (tested: FOI <10 (FOI >=10 = positive); 25 nM)

Binding (FOI) [2]: 180 FOI | Binding (FOI) [3]: 216 FOI
B18: mAb 222 (antibody, V domains shown)
VH: B10 VH with V70I, M78T, L79V
VL: B5 VL with E1K, H37Q, V60A, Q89K
notes: VH/VL only
binding result [1]: no binding (tested: FOI <10 (FOI >=10 = positive); 25 nM)
